Source: patent publication US20050191626, “Method for forming a stable complex comprising a transcription product and translation product of a dna encoding a desired polypeptide, a nucleic acid construct used for the method, a complex formed by the method, and screening of a functional protein and mrna or dna encoding the protein using the …” (published 2005)

T1: DHFR-(RE)1 (DHFR fused to one HIV Tat-derived RE peptide) (UniProt P04608)
T1 sequence: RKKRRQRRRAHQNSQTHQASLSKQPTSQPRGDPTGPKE

T2: DHFR-(RE)2 (DHFR fused to two tandem Tat-derived RE peptides) (UniProt P04608)
T2 sequence: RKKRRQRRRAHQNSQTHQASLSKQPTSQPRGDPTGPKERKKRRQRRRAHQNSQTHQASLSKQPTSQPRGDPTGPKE

T3: DHFR-(RE)3 (DHFR fused to three tandem Tat-derived RE peptides) (UniProt P04608)
T3 sequence: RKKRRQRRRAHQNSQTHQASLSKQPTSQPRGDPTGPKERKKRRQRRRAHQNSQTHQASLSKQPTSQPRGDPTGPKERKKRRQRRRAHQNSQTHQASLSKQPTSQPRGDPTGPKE


Experiments:
[1] = target: T1, DHFR-(RE)1 (DHFR fused to one HIV Tat-derived RE peptide); test: EMSA; details: apparent Kd; 10 mM Tris-HCl pH 8.0, 70 mM NaCl, 2 mM EDTA, 0.1% NP-40, 40 nM tRNA, 30 C
[2] = target: T2, DHFR-(RE)2 (DHFR fused to two tandem Tat-derived RE peptides); test: EMSA; details: apparent Kd; 10 mM Tris-HCl pH 8.0, 70 mM NaCl, 2 mM EDTA, 0.1% NP-40, 40 nM tRNA, 30 C
[3] = target: T3, DHFR-(RE)3 (DHFR fused to three tandem Tat-derived RE peptides); test: EMSA; details: apparent Kd; 10 mM Tris-HCl pH 8.0, 70 mM NaCl, 2 mM EDTA, 0.1% NP-40, 40 nM tRNA, 30 C
[4] = target: dihydrofolate reductase (DHFR), wild type (UniProt P0ABQ4 P0ABQ4:1-159); test: EMSA; no mobility change with increasing wild-type DHFR; details: tags: poly-His (pET30a); label: 5'-32P

Row | Molecule | binding result [4] | also measured
1 | AAAAAACGAAGCUUGAUCCCGUUUGCCGGUCGAUCGCUUCG [(Apt)1 Tat aptamer] | – | Kd [1]: < 24000 pM
2 | AAAAAACGAAGCUUGAUCCCGUUUGCCGGUCGAUCGCUUCGAAAAAACGAAGCUUGAUCCCGUUUGCCGGUCGAUCGCUUCG [(Apt)2 two tandem Tat aptamers via A6 linker] | – | Kd [2]: < 200 pM
3 | AAAAAACGAAGCUUGAUCCCGUUUGCCGGUCGAUCGCUUCGAAAAAACGAAGCUUGAUCCCGUUUGCCGGUCGAUCGCUUCGAAAAAACGAAGCUUGAUCCCGUUUGCCGGUCGAUCGCUUCG [(Apt)3 three tandem Tat aptamers via A6 linkers] | – | Kd [3]: < 16 pM
4 | AAAAAACGAAGCUUGAUCCCGUUUGCCGGUCGAUCGCUUCG (ssRNA) [(Apt)1 Tat aptamer] | no binding | –
5 | (Apt)3 three tandem Tat aptamers via A6 linkers (ssRNA) RNA: AAAAAACGAAGCUUGAUCCCGUUUGCCGGUCGAUCGCUUCGAAAAAACGAAGCUUGAUCCCGUUUGCCGGUCGAUCGCUUCGAAAAAACGAAGCUUGAUCCCGUUUGCCGGUCGAUCGCUUCG | no binding | –
6 | (Apt)2 two tandem Tat aptamers via A6 linker (ssRNA) RNA: AAAAAACGAAGCUUGAUCCCGUUUGCCGGUCGAUCGCUUCGAAAAAACGAAGCUUGAUCCCGUUUGCCGGUCGAUCGCUUCG | no binding | –
